The source of these data is paper PMC3794980.

One experiment deals with HLA-A2:Ig fusion protein. As to the kind of experiment: fluorescence polarisation.
The target of experiment [1] is HLA class II molecule DRB1*1501 (human (endogenous in EBV transformed homozygous cell lines)). As to the kind of experiment: radioligand binding.
Experiment [2] has as its target HLA-DR DRB4*0101 (human (endogenous in EBV transformed cell lines)). Nature of the experiment: radioligand binding.
Experiment [3] addresses HLA-DR DRB1*0701 (human (endogenous in EBV transformed cell lines)). Nature of the experiment: radioligand binding.
Experiment [4] concerns the target HLA-DR DRB1*0901 (human (endogenous in EBV transformed cell lines)). Nature of the experiment: radioligand binding.
Experiment [5] deals with HLA-DR DRB1*0301 (human (endogenous in EBV transformed cell lines)). Nature of the experiment: radioligand binding.
Experiment [6] addresses HLA-DR DRB1*1501 (human (endogenous in EBV transformed cell lines)). As to the kind of experiment: radioligand binding.
Experiment [7] deals with HLA-DR DRB1*0405 (human (endogenous in EBV transformed cell lines)). Nature of the experiment: radioligand binding.
In experiment [8] the target is HLA-DR DRB1*0401 (human (endogenous in EBV transformed cell lines)). Nature of the experiment: radioligand binding.
The target of experiment [9] is HLA-DR DRB1*1101 (human (endogenous in EBV transformed cell lines)). Nature of the experiment: radioligand binding.
Experiment [10] has as its target HLA-DR DRB1*0101 (human (endogenous in EBV transformed cell lines)). Nature of the experiment: radioligand binding.
Experiment [11] deals with HLA-DR DRB1*1302 (human (endogenous in EBV transformed cell lines)). Nature of the experiment: radioligand binding.
Experiment [12] deals with HLA-DR DRB1*0802 (human (endogenous in EBV transformed cell lines)). As to the kind of experiment: radioligand binding.
The target of experiment [13] is HLA-DR DRB1*0404 (human (endogenous in EBV transformed cell lines)). Nature of the experiment: radioligand binding.

pIC50: −log10 of the molar value. Bounds are passed on as bounds.

In the case of “DENV4 inter-serotype variant of NS3_(399–407) (peptide)”, the pIC50 with HLA-A2:Ig fusion protein is 7.21.
As to DENV3 Env_(126–140) (peptide), the pIC50 in experiment [1] was greater than 7.70.
Consider DENV3 NS5 221-237 (peptide), for which the pIC50 was 7.22 in experiment [2]; 7.68 in experiment [3]; 7.35 in experiment [4]; 7.82 in experiment [5]; 7.70 in experiment [6]; 7.60 in experiment [7]. Further, the pIC50 is 8.98 in experiment [8]; 7.51 in [9]; 8.40 in experiment [10]; 7.18 in experiment [11]; 8.23 in [12]; 7.07 in [13].
Regarding DENV3 NS3_(357–371) (peptide), in experiment [1], the pIC50 is greater than 7.70.
For DENV3 Env_(106–114) (peptide), the pIC50 in the experiment with HLA-A2:Ig fusion protein was 8.54.
Substance DENV3 Env_(231–245) (peptide) gave a pIC50 in [1] greater than 7.70.
